Results published in patent publication US20240131162A1 (MacroGenics, published 2024).
Numbering of substitutions follows the chain as printed. Numbers in names are those of the source.

T1: CD32A^H (UniProt P12318 34-217, limits assumed)
T1 construct: also called FcγRIIA
T1 sequence (looked up): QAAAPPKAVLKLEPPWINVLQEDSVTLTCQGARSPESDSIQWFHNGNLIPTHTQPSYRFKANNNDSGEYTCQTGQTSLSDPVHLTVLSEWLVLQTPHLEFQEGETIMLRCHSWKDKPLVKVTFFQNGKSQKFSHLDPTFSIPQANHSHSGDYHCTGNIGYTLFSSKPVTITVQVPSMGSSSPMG

T2: CD32B (FcγRII-B) (UniProt P31994 43-217, limits assumed)
T2 sequence (looked up): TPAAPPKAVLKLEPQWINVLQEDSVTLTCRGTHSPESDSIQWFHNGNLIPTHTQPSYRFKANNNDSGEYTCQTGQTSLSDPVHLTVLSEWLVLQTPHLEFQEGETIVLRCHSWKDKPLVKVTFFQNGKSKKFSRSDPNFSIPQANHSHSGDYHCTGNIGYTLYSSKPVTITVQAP

B1: ch4D5-FcMT1 (antibody, human IgG1, kappa)
heavy: QVQLQQSGPELVKPGASLKLSCTASGFNIKDTYIHWVKQRPEQGLEWIGRIYPTNGYTRYDPKFQDKATITADTSSNTAYLQVSRLTSEDTAVYYCSRWGGDGFYAMDYWGQGASVTVSSASTKGPSVFPLAPSSKSTSGGTAALGCLVKDYFPEPVTVSWNSGALTSGVHTFPAVLQSSGLYSLSSVVTVPSSSLGTQTYICNVNHKPSNTKVDKRVEPKSCDKTHTCPPCPAPELLGGPSVFLLPPKPKDTLMISRTPEVTCVVVDVSHEDPEVKFNWYVDGVEVHNAKTKPPEEQYNSTLRVVSILTVLHQDWLNGKEYKCKVSNKALPAPIEKTISKAKGQPREPQVYTLPPSRDELTKNQVSLTCLVKGFYPSDIAVEWESNGQPENNYKTTPLVLDSDGSFFLYSKLTVDKSRWQQGNVFSCSVMHEALHNHYTQKSLSLSPGK
light: DIVMTQSHKFMSTSVGDRVSITCKASQDVNTAVAWYQQKPGHSPKLLIYSASFRYTGVPDRFTGSRSGTDFTFTISSVQAEDLAVYYCQQHYTTPPTFGGGTKVEIKRTVAAPSVFIFPPSDEQLKSGTASVVCLLNNFYPREAKVQWKVDNALQSGNSQESVTEQDSKDSTYSLSSTLTLSKADYEKHKVYACEVTHQGLSSPVTKSFNRGEC
B2: ch4D5-wild-type Fc (antibody, human IgG1, kappa)
heavy: not shown
light: B1 light
notes: Chimeric 4D5; also called ch4D5-FcWT; WT
B3: Fc mutant 12: F243L R292P Y300L (other, UniProt P01857-1 104-330, looked up)
chain: DKTHTCPPCPAPELLGGPSVFLLPPKPKDTLMISRTPEVTCVVVDVSHEDPEVKFNWYVDGVEVHNAKTKPPEEQYNSTLRVVSVLTVLHQDWLNGKEYKCKVSNKALPAPIEKTISKAKGQPREPQVYTLPPSRDELTKNQVSLTCLVKGFYPSDIAVEWESNGQPENNYKTTPPVLDSDGSFFLYSKLTVDKSRWQQGNVFSCSVMHEALHNHYTQKSLSLSPGK
notes: domain: Fc
B4: Fc mutant 17: F243L R292P V305I P396L (other, UniProt P01857-1 104-330, looked up)
chain: B3 chain with L80Y, V85I, P176L
notes: domain: Fc
B5: Fc mutant 14: F243L R292P P396L (other, UniProt P01857-1 104-330, looked up)
chain: B3 chain with L80Y, P176L
notes: domain: Fc
B6: Fc mutant 13: F243L R292P V305I (other, UniProt P01857-1 104-330, looked up)
chain: B3 chain with L80Y, V85I
notes: domain: Fc
B7: Fc mutant 16: F243L R292P Y300L P396L (other, UniProt P01857-1 104-330, looked up)
chain: B3 chain with P176L
notes: domain: Fc
B8: Fc mutant 18: F243L R292P Y300L V305I P396L (other, UniProt P01857-1 104-330, looked up)
chain: B3 chain with V85I, P176L
notes: domain: Fc; Same substitutions as the Fc of ch4D5-FcMT1
B9: Fc mutant 15: R292P V305I P396L (other, UniProt P01857-1 104-330, looked up)
chain: B3 chain with L23F, L80Y, V85I, P176L
notes: domain: Fc
B10: Fc variant D270E P396L G316D R416G (other, UniProt P01857-1 104-330, looked up)
chain: B3 chain with L23F, D50E, P72R, L80Y, G96D, P176L, R196G
notes: domain: Fc; also called D270E G316D P396L R416G
B11: Fc variant D270E G316D R416G (other, UniProt P01857-1 104-330, looked up)
chain: B3 chain with L23F, D50E, P72R, L80Y, G96D, R196G
notes: domain: Fc
B12: Fc variant D270E K392T P396L (other, UniProt P01857-1 104-330, looked up)
chain: B3 chain with L23F, D50E, P72R, L80Y, K172T, P176L
notes: domain: Fc
B13: Fc variant F243L D270E P396L Q419H (other, UniProt P01857-1 104-330, looked up)
chain: B3 chain with D50E, P72R, L80Y, P176L, Q199H
notes: domain: Fc
B14: Fc variant F243L R255L D270E P396L (other, UniProt P01857-1 104-330, looked up)
chain: B3 chain with R35L, D50E, P72R, L80Y, P176L
notes: domain: Fc
B15: Fc variant F243L P247L N421K (other, UniProt P01857-1 104-330, looked up)
chain: B3 chain with P27L, P72R, L80Y, N201K
notes: domain: Fc
B16: Fc variant R255L D270E P396L (other, UniProt P01857-1 104-330, looked up)
chain: B3 chain with L23F, R35L, D50E, P72R, L80Y, P176L
notes: domain: Fc
B17: Fc variant R255L D270E Y300L P396L (other, UniProt P01857-1 104-330, looked up)
chain: B3 chain with L23F, R35L, D50E, P72R, P176L
notes: domain: Fc
B18: Fc variant F243L D270E G316D R416G (other, UniProt P01857-1 104-330, looked up)
chain: B3 chain with D50E, P72R, L80Y, G96D, R196G
notes: domain: Fc
B19: Fc variant P247L D270E N421K (other, UniProt P01857-1 104-330, looked up)
chain: B3 chain with L23F, P27L, D50E, P72R, L80Y, N201K
notes: domain: Fc
B20: Fc variant F243L D270E K392T P396L (other, UniProt P01857-1 104-330, looked up)
chain: B3 chain with D50E, P72R, L80Y, K172T, P176L
notes: domain: Fc
B21: Fc variant F243L P247L D270E N421K (other, UniProt P01857-1 104-330, looked up)
chain: B3 chain with P27L, D50E, P72R, L80Y, N201K
notes: domain: Fc
B22: Fc variant D270E P396L Q419H (other, UniProt P01857-1 104-330, looked up)
chain: B3 chain with L23F, D50E, P72R, L80Y, P176L, Q199H
notes: domain: Fc
B23: Fc variant F243I R292P Y300L V305I P396L (other, UniProt P01857-1 104-330, looked up)
chain: B3 chain with L23I, V85I, P176L
notes: domain: Fc; 'F243I' as printed
B24: Fc variant R255L D270E R292G P396L (other, UniProt P01857-1 104-330, looked up)
chain: B3 chain with L23F, R35L, D50E, P72G, L80Y, P176L
notes: domain: Fc

Each binder was assayed against human CD16A (FcγRIII-A) (human, UniProt P08637 17-208, limits assumed) (assay: method not stated).
Chain of human CD16A (FcγRIII-A) (P08637 17-208 limits assumed): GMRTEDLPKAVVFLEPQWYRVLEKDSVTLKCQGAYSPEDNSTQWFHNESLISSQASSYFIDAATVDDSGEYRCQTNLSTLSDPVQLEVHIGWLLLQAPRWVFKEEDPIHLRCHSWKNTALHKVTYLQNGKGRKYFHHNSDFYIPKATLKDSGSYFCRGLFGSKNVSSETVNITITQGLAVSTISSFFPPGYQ

| fold increase in binding | Binder |
| --- | --- |
| 10 fold | B1 |

Each binder was assayed against T3, HER-2 (human, UniProt P04626 23-652, limits assumed) (assay: SPR (BIAcore), HER-2 immobilised, antibody as analyte).
T3 construct: also called HER2/neu; erbB-2
Procedure: The kinetic parameters of the binding of eluted and purified antibodies were analyzed using a BIACORE® assay (BIAcore instrument 1000, BIAcore Inc., Piscataway, N.J.) and associated software. HER-2 was immobilized on one of the four flow cells (flow cell 2) of a sensor chip surface through amine coupling chemistry (by modification of carboxymethyl groups with mixture of NHS/EDC) such that about 1000 response units (RU) of receptor was immobilized on the surface. Following this, the unreacted active esters were “capped off” with an injection of 1 M Et-NH2.

| koff | kon | Binder |
| --- | --- | --- |
| ~3.2e-07 s⁻¹ | 170000 M⁻¹ s⁻¹ | B2 |

These binders were tested against T4, CD16A V158 (human, UniProt P08637 17-208, limits assumed) (assay: SPR (BIAcore), koff compared with wild-type Fc).
T4 construct: construct not described
T4 sequence (P08637 17-208 F176V limits assumed): as the sequence (P08637 17-208 limits assumed) above, with F160V counted along it

| WT koff/mutant koff | Binder |
| --- | --- |
| 7.4 ratio | B3 |
| 4 ratio | B4 |
| 6.3 ratio | B5 |
| 2.6 ratio | B6 |
| 10.1 ratio | B7 |
| 10.1 ratio | B8 |
| 1.9 ratio | B9 |

Each binder was assayed against T1, CD32A^H (assay: SPR (BIAcore), koff compared with wild-type Fc).

| WT koff/mutant koff | Binder |
| --- | --- |
| 1 ratio | B3 |
| 0.8 ratio | B4 |
| 1.4 ratio | B5 |
| 0.2 ratio | B6 |
| 1.7 ratio | B7 |
| 3.2 ratio | B8 |
| 1.5 ratio | B9 |

What follows are binders tested against T5, CD16A F158 (human, UniProt P08637 17-208, limits assumed) (assay: SPR (BIAcore), koff compared with wild-type Fc).
T5 construct: construct not described
T5 sequence (P08637 17-208 limits assumed): as the sequence (P08637 17-208 limits assumed) above

| WT koff/mutant koff | Binder |
| --- | --- |
| 4.6 ratio | B3 |
| 2.3 ratio | B4 |
| 1.4 ratio | B6 |
| 5.6 ratio | B7 |
| 8.3 ratio | B8 |
| 1.9 ratio | B9 |

What follows are binders tested against T2, CD32B (FcγRII-B) (assay: SPR (BIAcore), koff compared with wild-type Fc).

| WT koff/mutant koff | Binder |
| --- | --- |
| 0.6 ratio | B3 |
| 0.4 ratio | B4 |
| 0.4 ratio | B5 |
| 0.1 ratio | B6 |
| 1.1 ratio | B7 |
| 1.4 ratio | B8 |
| 0.9 ratio | B9 |

The binders below were run against T4, CD16A V158 (assay: method not stated at Table 3).

| binding relative to wild-type Fc | Binder |
| --- | --- |
| 1.22 fold | B10 |
| 2.18 fold | B11 |
| 1.81 fold | B12 |
| 1.46 fold | B13 |
| 1.75 fold | B14 |
| 1.89 fold | B15 |
| 5.37 fold | B4 |
| 1.34 fold | B16 |
| 2.56 fold | B6 |
| 10.1 fold | B7 |
| 1.52 fold | B17 |
| 10.1 fold | B8 |
| 1.5 fold | B18 |
| 1.89 fold | B19 |
| 3.16 fold | B20 |
| 2.3 fold | B21 |
| 1.64 fold | B22 |
| 1.85 fold | B9 |

The binders below were run against T5, CD16A F158 (assay: method not stated at Table 3).

| binding relative to wild-type Fc | Binder |
| --- | --- |
| 0.94 fold | B10 |
| 2.49 fold | B11 |
| 2.28 fold | B12 |
| 1.15 fold | B13 |
| 1.64 fold | B14 |
| 1.71 fold | B15 |
| 3.12 fold | B23 |
| 2.53 fold | B4 |
| 1.65 fold | B16 |
| 1.43 fold | B6 |
| 5.62 fold | B7 |
| 1.74 fold | B17 |
| 8.25 fold | B8 |
| 1.34 fold | B18 |
| 2.46 fold | B19 |
| 2.44 fold | B20 |
| 3.45 fold | B21 |
| 1.9 fold | B9 |

What follows are binders tested against T2, CD32B (FcγRII-B) (assay: method not stated at Table 3).

| binding relative to wild-type Fc | Binder |
| --- | --- |
| 1.07 fold | B10 |
| 0.78 fold | B11 |
| 0.79 fold | B12 |
| 0.26 fold | B13 |
| 0.38 fold | B14 |
| 0.17 fold | B15 |
| 1.05 fold | B23 |
| 0.4 fold | B4 |
| 0.87 fold | B16 |
| 0.65 fold | B24 |
| 1.07 fold | B7 |
| 0.87 fold | B17 |
| 1.38 fold | B8 |
| 0.2 fold | B18 |
| 0.58 fold | B19 |
| 0.44 fold | B20 |
| 0.32 fold | B21 |
| 0.68 fold | B22 |
| 0.92 fold | B9 |
